Substrate: O=c1cc(C(F)(F)F)c2ccc(OCc3ccccc3)cc2o1
Assay: purified protein
Type: biochemical, Homo sapiens
Conditions: heme

B1: CYP3A7mut (Homo sapiens; C77G/K244E/K421A/K422A/K424A/R69G) (protein)
chain: YLYGTRTHGLFKKLGIPGPTPLPFLGNALSFRKGYWTFDMECYKKYGKVWGIYDGQQPMLAITDPDMIKTVLVKECYSVFTNRRPFGPVGFMKNAISIAEDEEWKRIRSLLSPTFTSGKLKEMVPIIAQYGDVLVRNLRREAETGKPVTLKHVFGAYSMDVITSTSFGVSIDSLNNPQDPFVENTKKLLRFNPLDPFVLSIKVFPFLTPILEALNITVFPREVISFLTKSVKQIKEGRLKETQKHRVDFLQLMIDSQNSKDSETHKALSDLELMAQSIIFIFAGYETTSSVLSFIIYELATHPDVQQKVQKEIDTVLPNKAPPTYDTVLQLEYLDMVVNETLRLFPVAMRLERVCKKDVEINGMFIPKGVVVMIPSYVLHHDPKYWTEPEKFLPERFSAANADNIDPYIYTPFGSGPRNCIGMRFALVNMKLALVRVLQNFSFKPCKETQIPLKLRFGGLLLTEKPIVLKAESRDETVSGA
notes: Δ3-22 (lacking the membrane tether, residues 3-22), C-terminal 4-histidine tag
In the case of B1, the Km is reported as 11 ± 1 µM, the kcat is reported as 0.000567 ± 8.33e-05 s⁻¹ and the kcat/Km is reported as 51.7 M⁻¹ s⁻¹.

Source: publication PMC8198134, “Structural Basis for the Diminished Ligand Binding and Catalytic Ability of Human Fetal-Specific CYP3A7” (International Journal of Molecular Sciences, 2021)
